Measurements from the supplement of paper PMC10065799, “High-throughput profiling of sequence recognition by tyrosine kinases and SH2 domains using bacterial peptide display” (eLife, 2023).

Columns and labels:
AncSZ = assay: phosphorylation enrichment, bacterial display (enrichment ratio); higher = better substrate or ligand; peptides without Tyr show the background
EPHB1 = EPHB1 (UniProt P54762); assay: as above
EPHB2 = EPHB2 (UniProt P29323); assay: as above
FGFR1 = FGFR1 (UniProt P11362); assay: as above
FGFR1, sequence (P11362 whole entry, looked up): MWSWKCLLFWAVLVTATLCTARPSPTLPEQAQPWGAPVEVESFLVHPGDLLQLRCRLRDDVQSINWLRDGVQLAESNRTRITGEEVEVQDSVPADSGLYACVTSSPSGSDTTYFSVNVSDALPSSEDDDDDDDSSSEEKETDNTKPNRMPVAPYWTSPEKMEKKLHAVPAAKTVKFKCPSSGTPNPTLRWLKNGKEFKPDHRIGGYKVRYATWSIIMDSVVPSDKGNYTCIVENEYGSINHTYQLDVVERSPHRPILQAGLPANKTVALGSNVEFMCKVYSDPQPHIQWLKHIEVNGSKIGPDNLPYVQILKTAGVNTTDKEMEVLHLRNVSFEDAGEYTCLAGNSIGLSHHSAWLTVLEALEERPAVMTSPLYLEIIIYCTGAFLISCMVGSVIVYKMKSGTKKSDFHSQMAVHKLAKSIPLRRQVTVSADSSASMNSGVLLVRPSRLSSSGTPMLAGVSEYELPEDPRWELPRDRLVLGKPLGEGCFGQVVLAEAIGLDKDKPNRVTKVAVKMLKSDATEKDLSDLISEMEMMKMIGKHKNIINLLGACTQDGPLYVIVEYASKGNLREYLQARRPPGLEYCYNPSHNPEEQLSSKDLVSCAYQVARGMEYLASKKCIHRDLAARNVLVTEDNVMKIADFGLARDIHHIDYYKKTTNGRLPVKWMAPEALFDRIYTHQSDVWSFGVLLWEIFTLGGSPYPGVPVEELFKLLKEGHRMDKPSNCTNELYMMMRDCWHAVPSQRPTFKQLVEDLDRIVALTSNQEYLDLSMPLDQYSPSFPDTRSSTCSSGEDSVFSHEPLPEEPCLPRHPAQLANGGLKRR

FGFR3 = FGFR3 (UniProt P22607); assay: as above
FGFR3, sequence (P22607 whole entry, looked up): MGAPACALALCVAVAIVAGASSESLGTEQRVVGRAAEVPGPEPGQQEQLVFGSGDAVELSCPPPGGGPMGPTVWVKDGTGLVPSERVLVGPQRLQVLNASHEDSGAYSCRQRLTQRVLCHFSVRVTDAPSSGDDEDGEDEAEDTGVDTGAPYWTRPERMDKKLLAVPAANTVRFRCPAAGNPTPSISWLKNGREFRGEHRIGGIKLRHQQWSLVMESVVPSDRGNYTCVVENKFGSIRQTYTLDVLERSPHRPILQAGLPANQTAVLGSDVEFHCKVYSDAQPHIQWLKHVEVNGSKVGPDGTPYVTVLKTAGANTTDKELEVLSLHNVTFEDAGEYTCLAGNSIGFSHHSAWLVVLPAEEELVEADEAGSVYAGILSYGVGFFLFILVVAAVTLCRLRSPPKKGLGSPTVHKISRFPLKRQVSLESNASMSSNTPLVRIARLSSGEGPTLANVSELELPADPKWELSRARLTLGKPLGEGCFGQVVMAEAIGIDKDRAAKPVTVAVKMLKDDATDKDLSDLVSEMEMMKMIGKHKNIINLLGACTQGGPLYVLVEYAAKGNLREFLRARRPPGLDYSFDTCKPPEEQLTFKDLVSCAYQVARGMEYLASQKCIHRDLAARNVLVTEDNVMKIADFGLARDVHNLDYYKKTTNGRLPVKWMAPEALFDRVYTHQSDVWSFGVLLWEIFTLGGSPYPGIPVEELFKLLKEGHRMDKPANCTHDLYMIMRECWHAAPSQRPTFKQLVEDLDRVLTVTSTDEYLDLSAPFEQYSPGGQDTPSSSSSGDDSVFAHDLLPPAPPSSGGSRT

Fer (mouse) = assay: as above
Fes = Fes (UniProt P07332); assay: as above
Fes, sequence (P07332 whole entry, looked up): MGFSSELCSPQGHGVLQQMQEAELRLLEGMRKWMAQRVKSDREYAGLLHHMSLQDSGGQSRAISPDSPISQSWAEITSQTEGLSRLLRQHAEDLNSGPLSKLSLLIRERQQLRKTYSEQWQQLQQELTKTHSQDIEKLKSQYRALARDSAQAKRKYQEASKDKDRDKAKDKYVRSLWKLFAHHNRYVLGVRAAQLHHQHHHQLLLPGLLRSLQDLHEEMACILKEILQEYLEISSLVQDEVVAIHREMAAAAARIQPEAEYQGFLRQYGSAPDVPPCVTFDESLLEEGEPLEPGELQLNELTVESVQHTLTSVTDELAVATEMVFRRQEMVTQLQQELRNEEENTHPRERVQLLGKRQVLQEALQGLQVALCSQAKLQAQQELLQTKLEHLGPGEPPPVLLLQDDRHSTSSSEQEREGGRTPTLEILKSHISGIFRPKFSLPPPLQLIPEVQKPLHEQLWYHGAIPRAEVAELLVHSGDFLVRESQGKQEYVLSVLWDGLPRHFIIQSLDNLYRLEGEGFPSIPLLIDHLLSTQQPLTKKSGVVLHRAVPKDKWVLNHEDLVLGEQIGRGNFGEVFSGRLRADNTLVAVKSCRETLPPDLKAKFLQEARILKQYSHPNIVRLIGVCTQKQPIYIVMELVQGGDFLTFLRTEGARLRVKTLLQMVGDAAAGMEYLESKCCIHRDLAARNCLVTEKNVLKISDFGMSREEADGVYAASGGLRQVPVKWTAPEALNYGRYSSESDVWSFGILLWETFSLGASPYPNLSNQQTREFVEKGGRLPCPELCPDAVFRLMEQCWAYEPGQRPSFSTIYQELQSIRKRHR

Fyn = Fyn (UniProt P06241); assay: as above
Hck = Hck (UniProt P08631); assay: as above
Hck, sequence (P08631 whole entry, looked up): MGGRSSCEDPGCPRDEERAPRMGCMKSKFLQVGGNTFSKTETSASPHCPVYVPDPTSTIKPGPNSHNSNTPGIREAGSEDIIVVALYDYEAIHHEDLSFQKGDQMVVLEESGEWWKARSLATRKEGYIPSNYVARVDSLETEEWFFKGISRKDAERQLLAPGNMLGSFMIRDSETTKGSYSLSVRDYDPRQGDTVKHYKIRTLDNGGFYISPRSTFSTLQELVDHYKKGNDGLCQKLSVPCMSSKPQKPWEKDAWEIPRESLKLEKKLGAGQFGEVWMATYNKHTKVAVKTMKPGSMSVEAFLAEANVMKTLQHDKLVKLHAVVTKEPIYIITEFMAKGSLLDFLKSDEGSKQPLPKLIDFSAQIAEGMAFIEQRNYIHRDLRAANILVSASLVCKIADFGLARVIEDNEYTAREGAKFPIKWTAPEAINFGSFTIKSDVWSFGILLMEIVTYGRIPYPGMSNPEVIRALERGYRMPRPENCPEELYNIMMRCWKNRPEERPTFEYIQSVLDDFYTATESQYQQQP

Jak2 = Jak2 (UniProt O60674); assay: as above
MERTK = MERTK (UniProt Q12866); assay: as above
MERTK, sequence (Q12866 whole entry, looked up): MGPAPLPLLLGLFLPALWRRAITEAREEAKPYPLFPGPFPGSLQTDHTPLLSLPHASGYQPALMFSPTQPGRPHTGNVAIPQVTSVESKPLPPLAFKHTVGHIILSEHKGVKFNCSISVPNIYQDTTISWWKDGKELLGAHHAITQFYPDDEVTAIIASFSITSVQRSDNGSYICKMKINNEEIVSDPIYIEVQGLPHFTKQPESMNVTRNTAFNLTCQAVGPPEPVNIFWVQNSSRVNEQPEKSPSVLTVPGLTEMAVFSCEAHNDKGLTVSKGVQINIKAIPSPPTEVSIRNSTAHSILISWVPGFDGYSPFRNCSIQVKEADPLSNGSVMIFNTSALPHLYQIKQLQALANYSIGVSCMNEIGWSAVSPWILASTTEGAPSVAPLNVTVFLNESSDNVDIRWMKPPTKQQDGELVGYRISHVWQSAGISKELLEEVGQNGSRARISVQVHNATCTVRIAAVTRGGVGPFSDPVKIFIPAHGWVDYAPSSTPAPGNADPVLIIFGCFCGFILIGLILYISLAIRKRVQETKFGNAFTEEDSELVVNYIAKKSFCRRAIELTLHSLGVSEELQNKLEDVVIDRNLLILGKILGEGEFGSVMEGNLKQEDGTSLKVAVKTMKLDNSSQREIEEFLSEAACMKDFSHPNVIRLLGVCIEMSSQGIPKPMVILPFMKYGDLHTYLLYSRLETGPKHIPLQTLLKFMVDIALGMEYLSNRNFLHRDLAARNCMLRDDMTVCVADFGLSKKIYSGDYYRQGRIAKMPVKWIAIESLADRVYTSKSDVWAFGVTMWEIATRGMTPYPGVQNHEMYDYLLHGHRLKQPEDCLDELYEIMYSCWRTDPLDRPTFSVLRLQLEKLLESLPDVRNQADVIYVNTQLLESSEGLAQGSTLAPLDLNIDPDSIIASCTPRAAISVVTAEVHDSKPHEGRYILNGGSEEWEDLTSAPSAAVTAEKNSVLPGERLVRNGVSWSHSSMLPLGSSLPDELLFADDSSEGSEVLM

c-Abl (mouse) = assay: as above
c-Src = assay: as above
Grb2 SH2 = Grb2 SH2 (UniProt P62993); assay: SH2 binding enrichment of the phosphorylated peptide, bacterial display (enrichment ratio); higher = better substrate or ligand; peptides without Tyr show the background
SHP2-C SH2 = assay: as above
c-Src SH2 = assay: as above
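Throughout, for SH2 binding enrichment of the phosphorylated peptide, bacterial display: peptide library displayed on the E. coli surface as eCPX fusions, selected cells deep-sequenced, score is each peptide's frequency after selection divided by its frequency in the input.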
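Throughout, for phosphorylation enrichment, bacterial display: 11-residue human phosphosite peptides and single-mutation variants displayed on the E. coli surface, counted by deep sequencing, each peptide's frequency after selection divided by its frequency in the unselected input library; frequency after pTyr selection over input frequency; kinase dosed for 20-30% of maximal phosphorylation in three min.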

EPHB1, sequence (P54762 whole entry, looked up): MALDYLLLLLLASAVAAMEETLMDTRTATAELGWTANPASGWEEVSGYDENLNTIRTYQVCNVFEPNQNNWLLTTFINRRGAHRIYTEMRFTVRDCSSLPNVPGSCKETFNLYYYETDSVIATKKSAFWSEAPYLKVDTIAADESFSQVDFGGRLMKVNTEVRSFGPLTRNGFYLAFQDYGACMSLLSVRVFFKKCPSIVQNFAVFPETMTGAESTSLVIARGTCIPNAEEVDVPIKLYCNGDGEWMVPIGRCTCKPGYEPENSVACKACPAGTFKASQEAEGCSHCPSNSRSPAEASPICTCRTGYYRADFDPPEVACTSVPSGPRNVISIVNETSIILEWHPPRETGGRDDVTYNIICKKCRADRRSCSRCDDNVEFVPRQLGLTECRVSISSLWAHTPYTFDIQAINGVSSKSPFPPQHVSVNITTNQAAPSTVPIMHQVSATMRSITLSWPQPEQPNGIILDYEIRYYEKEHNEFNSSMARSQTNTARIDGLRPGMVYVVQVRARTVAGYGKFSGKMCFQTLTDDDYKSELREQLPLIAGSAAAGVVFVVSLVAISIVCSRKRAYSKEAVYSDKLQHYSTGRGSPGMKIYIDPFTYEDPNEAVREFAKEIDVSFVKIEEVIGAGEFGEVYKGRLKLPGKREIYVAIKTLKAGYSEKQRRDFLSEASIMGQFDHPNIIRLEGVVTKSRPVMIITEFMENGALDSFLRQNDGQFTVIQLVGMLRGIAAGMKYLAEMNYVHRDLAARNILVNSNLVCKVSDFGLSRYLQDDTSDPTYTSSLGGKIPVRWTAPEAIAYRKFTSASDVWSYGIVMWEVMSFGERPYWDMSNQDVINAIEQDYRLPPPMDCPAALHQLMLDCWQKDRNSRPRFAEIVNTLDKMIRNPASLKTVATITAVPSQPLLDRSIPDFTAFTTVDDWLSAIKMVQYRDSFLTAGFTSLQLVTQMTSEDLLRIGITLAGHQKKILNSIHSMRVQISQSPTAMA

Row | Sequence | SH2 binding enrichment (Grb2 SH2) | SH2 binding enrichment (SHP2-C SH2) | SH2 binding enrichment (c-Src SH2) | phosphorylation enrichment (AncSZ) | phosphorylation enrichment (EPHB1) | phosphorylation enrichment (EPHB2) | phosphorylation enrichment (FGFR1) | phosphorylation enrichment (FGFR3) | phosphorylation enrichment (Fer (mouse)) | phosphorylation enrichment (Fes) | phosphorylation enrichment (Fyn) | phosphorylation enrichment (Hck) | phosphorylation enrichment (Jak2) | phosphorylation enrichment (MERTK) | phosphorylation enrichment (c-Abl (mouse)) | phosphorylation enrichment (c-Src)
1 | KKARAYRPGIE [FLNA_Y287_G288R] | 0.761 | 0.606 | 0.469 | 0.499 | 0.289 | 0.417 | 0.299 | 0.357 | 0.31 | 0.45 | 0.338 | 0.323 | 0.565 | 0.371 | 0.455 | 0.449
2 | QMVRMYASSYM [AVPR2_Y124_G122R] | 0.899 | 0.64 | 0.455 | 1.31 | 0.842 | 0.787 | 0.622 | 0.988 | 0.717 | 1.28 | 0.557 | 0.621 | 0.764 | 0.659 | 0.675 | 0.464
3 | RGFRQYAFDGK [HLA-A_Y140_D140Y_YF] | 0.832 | 0.794 | 0.534 | 0.77 | 0.715 | 0.51 | 0.557 | 0.779 | 0.425 | 0.66 | 0.546 | 0.711 | 0.381 | 0.584 | 0.595 | 0.653
4 | KWRGQYDVAIK [BTK_Y425] | 1.34 | 0.935 | 1.21 | 0.676 | 0.399 | 0.642 | 0.527 | 0.546 | 0.429 | 0.742 | 0.491 | 0.479 | 0.543 | 0.463 | 0.802 | 0.567
5 | SHGQDYLAGNK [GSTA2_Y147_V149A] | 1.11 | 0.693 | 0.583 | 0.641 | 0.348 | 0.36 | 0.597 | 0.49 | 0.421 | 0.845 | 0.458 | 0.364 | 0.64 | 0.471 | 0.452 | 0.404
6 | LRTAVHHEILI [CREBBP_Y1450_Y1450H] | 0.973 | 0.756 | 0.48 | 1.09 | 1.02 | 0.487 | 0.963 | 0.812 | 0.675 | 1.39 | 0.508 | 0.643 | 1.32 | 0.535 | 1.94 | 0.701
7 | QFQEKYKQMEQ [HCN4_Y531_V534M_YF] | 0.844 | 0.956 | 0.472 | 1.24 | 0.608 | 0.576 | 0.654 | 1.05 | 0.502 | 1.87 | 0.93 | 1.53 | 1.36 | 0.554 | 0.976 | 0.366
8 | FKIFLYTLNDN [FN1_Y1975_YF] | 0.741 | 0.588 | 0.428 | 1.3 | 0.624 | 0.791 | 0.523 | 0.717 | 0.548 | 1.35 | 0.584 | 0.494 | 1.06 | 0.366 | 0.877 | 0.43
9 | PQGVRYIFTID [DCX_Y103_YF] | 0.602 | 1.09 | 0.654 | 1.68 | 0.587 | 0.524 | 0.61 | 0.96 | 0.826 | 3.66 | 0.617 | 0.714 | 1.89 | 0.664 | 1.38 | 0.587
10 | AISEGYKDFRA [CDA_Y79_V75I] | 0.829 | 0.536 | 0.31 | 0.617 | 0.353 | 0.415 | 0.425 | 0.524 | 0.313 | 0.638 | 0.323 | 0.405 | 0.617 | 0.382 | 0.622 | 0.499
11 | RQQQDYWLMDV [ANPEP_Y600_I603M] | 0.896 | 0.815 | 0.634 | 1.8 | 7.32 | 3.72 | 18 | 13.1 | 1.03 | 1.01 | 0.537 | 0.487 | 1.26 | 3.29 | 0.587 | 0.509
12 | WVYNHYRWFIW [BRCA2_Y2624_I2627F] | 0.966 | 0.733 | 0.666 | 1.12 | 0.506 | 0.466 | 0.406 | 0.667 | 0.49 | 1.24 | 0.441 | 0.403 | 1.15 | 0.418 | 0.777 | 0.433
13 | EACPSYSHVVL [CHST6_Y168_R166P] | 1 | 1.75 | 1.52 | 0.7 | 0.492 | 0.521 | 0.538 | 0.51 | 6 | 0.702 | 0.411 | 0.463 | 0.527 | 0.486 | 0.54 | 0.507
14 | NVPILYTASQA [CTNNA1_Y222] | 0.762 | 0.628 | 0.435 | 0.553 | 0.432 | 0.449 | 0.464 | 0.501 | 0.472 | 0.597 | 0.421 | 0.444 | 0.688 | 0.687 | 0.576 | 0.418
15 | RMSQRYGDVLQ [CYP1A2_Y72] | 0.788 | 0.518 | 0.294 | 1.03 | 0.399 | 0.41 | 0.89 | 0.769 | 0.644 | 0.967 | 0.431 | 0.336 | 0.744 | 0.481 | 0.747 | 0.595

Continued, in another order:

Row | SH2 binding enrichment (Grb2 SH2) | SH2 binding enrichment (SHP2-C SH2) | SH2 binding enrichment (c-Src SH2) | Sequence | phosphorylation enrichment (AncSZ) | phosphorylation enrichment (EPHB1) | phosphorylation enrichment (EPHB2) | phosphorylation enrichment (FGFR1) | phosphorylation enrichment (FGFR3) | phosphorylation enrichment (Fer (mouse)) | phosphorylation enrichment (Fes) | phosphorylation enrichment (Fyn) | phosphorylation enrichment (Hck) | phosphorylation enrichment (Jak2) | phosphorylation enrichment (MERTK) | phosphorylation enrichment (c-Abl (mouse)) | phosphorylation enrichment (c-Src)
16 | 0.744 | 0.767 | 0.541 | AEMKRYSESSS [RAI14_Y869_A870S] | 0.524 | 0.308 | 0.329 | 0.681 | 0.523 | 0.38 | 0.638 | 0.503 | 0.37 | 0.678 | 0.337 | 0.43 | 0.382
17 | 0.94 | 0.653 | 0.502 | EKAEVYRSENE [RIOK2_Y348_G349R] | 1.09 | 0.51 | 0.738 | 0.507 | 0.724 | 0.466 | 1.08 | 0.448 | 0.499 | 0.863 | 0.44 | 0.77 | 0.509
18 | 0.625 | 0.962 | 0.395 | LARDMHDKEYY [MET_Y1230_Y1230H] | 0.763 | 0.469 | 0.507 | 0.46 | 0.589 | 0.426 | 0.678 | 0.445 | 0.385 | 0.628 | 0.404 | 0.395 | 0.425
19 | 1 | 0.535 | 0.744 | QQTYTYDSGIH [JUP_Y22] | 1.45 | 1.09 | 1.5 | 1.12 | 1.38 | 0.454 | 1.35 | 1.65 | 1.61 | 1.2 | 3.33 | 0.841 | 1.41
20 | 0.614 | 0.611 | 0.5 | ASTDFYKRGDF [PDHA1_Y243_YF] | 0.719 | 0.374 | 0.375 | 0.413 | 0.431 | 0.475 | 0.795 | 0.325 | 0.39 | 0.749 | 0.345 | 0.515 | 0.52
21 | 0.952 | 0.79 | 0.536 | LLVVLNKYRCY [PSEN1_Y154_Y154N] | 1.34 | 1.03 | 0.875 | 0.73 | 1.39 | 0.53 | 1.6 | 0.631 | 0.448 | 1.68 | 0.456 | 0.96 | 0.577
22 | 0.821 | 0.661 | 0.563 | GHEFIYVDPMQ [PDGFRA_Y574_YF] | 1.85 | 5.23 | 6.63 | 10.8 | 7.52 | 1.91 | 0.986 | 2.2 | 2.96 | 0.818 | 2.36 | 6.67 | 2.6
23 | 0.92 | 1.42 | 0.494 | GINDDYGQLKN [NBN_Y679] | 0.841 | 0.364 | 0.514 | 0.499 | 0.61 | 0.474 | 1.1 | 0.528 | 0.874 | 0.829 | 0.296 | 0.499 | 0.613
24 | 0.814 | 0.656 | 0.584 | SVVVCYEPPEV [TP53_Y220_P219C] | 1.78 | 0.751 | 0.697 | 0.509 | 0.78 | 0.678 | 1.19 | 0.573 | 0.616 | 1.07 | 0.457 | 0.849 | 0.518
25 | 0.928 | 0.632 | 0.553 | NQLNDYIFSFD [RARS1_Y516_R512Q] | 1.42 | 0.525 | 0.549 | 0.946 | 0.807 | 0.461 | 1.27 | 0.743 | 0.546 | 1.08 | 0.46 | 0.733 | 0.598
26 | 1.23 | 1.17 | 0.877 | QKFMAYLSQGG [HLCS_Y236] | 0.839 | 0.731 | 0.803 | 0.466 | 0.64 | 0.487 | 0.745 | 1.2 | 0.738 | 0.945 | 0.517 | 0.446 | 0.542
27 | 0.624 | 0.684 | 0.429 | GVRLFYRVMES [RB1_Y454_YF] | 1.29 | 0.655 | 0.576 | 0.488 | 0.815 | 0.517 | 1.42 | 0.448 | 0.541 | 1.38 | 0.381 | 0.83 | 0.39
28 | 0.941 | 1.22 | 0.996 | IFLGAYDRFLP [SLC22A5_Y486_V481I_YF] | 1.06 | 0.84 | 1.41 | 0.427 | 0.608 | 1.1 | 1 | 2.45 | 3.39 | 0.896 | 3.84 | 0.932 | 3.69
29 | 0.991 | 0.991 | 2.71 | RHFSSYSQMEN [PKP1_Y120_R116H] | 1.02 | 0.632 | 0.768 | 0.776 | 0.688 | 0.603 | 1 | 0.551 | 0.551 | 0.545 | 0.562 | 0.413 | 0.414
